The record followed here is patent US20190359653A1, “SELECTIVE PEPTIDE INHIBITORS OF FRIZZLED” (Genentech, Inc., priority 2016, published 2019).

The test addresses FZD7 class proteins. The test can be described thus: ELISA of biotinylated Wnt binding to FZD CRD-Fc with or without peptide.

B1: Biotinylated Wnt5a (ligand)
chain: IIGAQPLCSQLAGLSQGQKKLCHLYQDHMQYIGEGAKTGIKECQYQFRHRRWNCSTVDNTSVFGRVMQIGSRETAFTYAVSAAGVVNAMSRACREGELSTCGCSRAARPKDLPRDWLWGGCGDNIDYGYRFAKEFVDARERERIHAKGSYESARILMNLHNNEAGRRTVYNLADVACKCHGVSGSCSLKTCWLQLADFRKVGDALKEKYDSAAAMRLNSRGKLVQVNSRFNSPTTQDLVYIDPSPDYCVRNESTGSLGTQGRLCNKTSEGMDGCELMCCGRGYDQFKTVQTERCHCKFHWCCYVKCKKCTEIVDQFVCK
modifications: Biotinylated with the Pierce reagent cat no. 21338; the positions are not stated and the letters are unchanged. The lipid modification of Wnt (fatty acyl moiety) is not carried by the letters.
Consider B1, for which the fold enhancement of binding by Fz7-21 or dFz7-21 was in the range of 1.5 to 2 fold.
